Source: patent publication US20260055191A1

Target: purified total human IgA (human) (UniProt P11912)
Assay: cell-based or functional assay

Sequence of UniProt P11912 (P11912 whole entry): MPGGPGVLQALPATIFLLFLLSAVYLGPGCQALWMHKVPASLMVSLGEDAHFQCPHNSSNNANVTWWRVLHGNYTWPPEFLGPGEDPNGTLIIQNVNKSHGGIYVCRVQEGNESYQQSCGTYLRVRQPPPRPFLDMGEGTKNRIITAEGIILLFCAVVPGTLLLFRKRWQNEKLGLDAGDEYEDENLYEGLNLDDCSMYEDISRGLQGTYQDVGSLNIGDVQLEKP

percent of human IgA target remaining in rat serum (total free+bound human IgA by ELISA) 6 hours after subcutaneous administration of 2.0 mg: < 5%
B1: sCD89 glycoengineered polypeptide (receptor)
chain: QEGDFPMPFISAKSSPVIPLDGSVKIQCQAIREAYLTQLMIIKNSTYREIGRRLKFWNETDPEFVIDHMDANKAGRYQCQYRIGHYRFRYSDTLELVVTGLYGKPFLSADRGLVLMPGEQISLTCSSAHIPFDRFSLAKEGELSLPQHQSGEHPAQFSLGPVDLQVSGIYRCYGWYQRSPYLWSFPSNALELVVTGGGGANSTAPAPAPAHHHHHHHHHH
modifications: A2GalNAc2 N-glycans (82.8% A2GalNAc2) at three N-glycosylation sites: native N65 and N79 (numbering according to Uniprot P24071) and the site in the C-terminal glycotag; >95% all occupied
